In PMC7061307 (Molecular cell, 2019):

B1: B-TFIID TATA-Box Binding Protein Associated Factor 1 (BTAF1), endogenous human (natural protein, UniProt O14981 1-1849, looked up)
chain: MAVSRLDRLFILLDTGTTPVTRKAAAQQLGEVVKLHPHELNNLLSKVLIYLRSANWDTRIAAGQAVEAIVKNVPEWNPVPRTRQEPTSESSMEDSPTTERLNFDRFDICRLLQHGASLLGSAGAEFEVQDEKSGEVDPKERIARQRKLLQKKLGLNMGEAIGMSTEELFNDEDLDYTPTSASFVNKQPTLQAAELIDSEFRAGMSNRQKNKAKRMAKLFAKQRSRDAVETNEKSNDSTDGEPEEKRRKIANVVINQSANDSKVLIDNIPDSSSLIEETNEWPLESFCEELCNDLFNPSWEVRHGAGTGLREILKAHGKSGGKMGDSTLEEMIQQHQEWLEDLVIRLLCVFALDRFGDFVSDEVVAPVRETCAQTLGVVLKHMNETGVHKTVDVLLKLLTQEQWEVRHGGLLGIKYALAVRQDVINTLLPKVLTRIIEGLQDLDDDVRAVAAASLVPVVESLVYLQTQKVPFIINTLWDALLELDDLTASTNSIMTLLSSLLTYPQVQQCSIQQSLTVLVPRVWPFLHHTISSVRRAALETLFTLLSTQDQNSSSWLIPILPDMLRHIFQFCVLESSQEILDLIHKVWMELLSKASVQYVVAAACPWMGAWLCLMMQPSHLPIDLNMLLEVKARAKEKTGGKVRQGQSQNKEVLQEYIAGADTIMEDPATRDFVVMRARMMAAKLLGALCCCICDPGVNVVTQEIKPAESLGQLLLFHLNSKSALQRISVALVICEWAALQKECKAVTLAVQPRLLDILSEHLYYDEIAVPFTRMQNECKQLISSLADVHIEVGNRVNNNVLTIDQASDLVTTVFNEATSSFDLNPQVLQQLDSKRQQVQMTVTETNQEWQVLQLRVHTFAACAVVSLQQLPEKLNPIIKPLMETIKKEENTLVQNYAAQCIAKLLQQCTTRTPCPNSKIIKNLCSSLCVDPYLTPCVTCPVPTQSGQENSKGSTSEKDGMHHTVTKHRGIITLYRHQKAAFAITSRRGPTPKAVKAQIADLPAGSSGNILVELDEAQKPYLVQRRGAEFALTTIVKHFGGEMAVKLPHLWDAMVGPLRNTIDINNFDGKSLLDKGDSPAQELVNSLQVFETAAASMDSELHPLLVQHLPHLYMCLQYPSTAVRHMAARCVGVMSKIATMETMNIFLEKVLPWLGAIDDSVKQEGAIEALACVMEQLDVGIVPYIVLLVVPVLGRMSDQTDSVRFMATQCFATLIRLMPLEAGIPDPPNMSAELIQLKAKERHFLEQLLDGKKLENYKIPVPINAELRKYQQDGVNWLAFLNKYKLHGILCDDMGLGKTLQSICILAGDHCHRAQEYARSKLAECMPLPSLVVCPPTLTGHWVDEVGKFCSREYLNPLHYTGPPTERIRLQHQVKRHNLIVASYDVVRNDIDFFRNIKFNYCILDEGHVIKNGKTKLSKAVKQLTANYRIILSGTPIQNNVLELWSLFDFLMPGFLGTERQFAARYGKPILASRDARSSSREQEAGVLAMDALHRQVLPFLLRRMKEDVLQDLPPKIIQDYYCTLSPLQVQLYEDFAKSRAKCDVDETVSSATLSEETEKPKLKATGHVFQALQYLRKLCNHPALVLTPQHPEFKTTAEKLAVQNSSLHDIQHAPKLSALKQLLLDCGLGNGSTSESGTESVVAQHRILIFCQLKSMLDIVEHDLLKPHLPSVTYLRLDGSIPPGQRHSIVSRFNNDPSIDVLLLTTHVGGLGLNLTGADTVVFVEHDWNPMRDLQAMDRAHRIGQKRVVNVYRLITRGTLEEKIMGLQKFKMNIANTVISQENSSLQSMGTDQLLDLFTLDKDGKAEKADTSTSGKASMKSILENLSDLWDQEQYDSEYSLENFMHSLK
B2: TATA-box binding protein (TBP): TBP3X-T114A (protein)
parent chain: MDQNNSLPPYAQGLASPQGAMTPGIPIFSPMMPYGTGLTPQPIQNTNSLSILEEQQRQQQQQQQQQQQQQQQQQQQQQQQQQQQQQQQQQQQQQQAVAAAAVQQSTSQQATQGTSGQAPQLFHSQTLTTAPLPGTTPLYPSPMTPMTPITPATPASESSGIVPQLQNIVSTVNLGCKLDLKTIALRARNAEYNPKRFAAVIMRIREPRTTALIFSSGKMVCTGAKSEEQSRLAARKYARVVQKLGFPAKFLDFKIQNMVGSCDVKFPIRLEGLVLTHQQFSSYEPELFPGLIYRMIKPRIVLLIFVSGKVVLTGAKVRAEIYEAFENIYPILKGFRKTT

Legend:
[1] = target: 3XFLAG-TBP T114A (p3XFLAG-cmv10 construct) (human, UniProt P20226 1-339, T114A); experiment: co-IP
[2] = ChIP-qPCR ± TMG; conditions: glycan lost; control: TBP3X-WT cells
[3] = IP and anti-phosphothreonine blot; conditions: glycan lost; control: TBP3X-WT cells
[4] = TBP:BTAF1 interaction under LG, HG, TMG, Ac4SGlcNAc; conditions: glycan lost; control: TBP3X-WT cells

Row | Binder | fold amount of BTAF1 co-IPed against TBP^WT [1] | other: TMG-induced rise in promoter occupancy [2] | other: TBP phosphorylation [3] | other: response of BTAF1 binding to glucose/TMG/Ac4SGlcNAc [4]
1 | B1 | ~3 fold | – | – | –
2 | B2 | – | abolishes | no change | abolishes
